# Laboratory results published in patent publication US12616711B2, “Therapeutic dendrimer” (Starpharma Pty Ltd, priority 2019, dated 2026).
# Legend:
# [1] = Gemcitabine release from dendrimers in PBS; type: physicochemical; conditions: PBS pH 7.4, 37° C.
# Protocol: (§1) A study was carried out to determine the rate of gemcitabine release from dendrimer compounds in PBS and citrate buffer. Gemcitabine-conjugated dendrimers of the present disclosure, and a comparative example dendrimer, were each dissolved in PBS Buffer (2 mL, 10 mM, pH 7.4) or Citrate Buffer (2 mL, 0.1 M, pH 4.5) and held at 37° C. Samples were then analysed by injecting 5 μL of the solution on HPLC. At various time points, samples were analysed by HPLC. HPLC (C8 XBridge, 3×100 mm), gradient: 5% ACN/H2O (0-1 min), 5-80% ACN (1-7 min), 80% ACN (7-12 min), 80-5% ACN (12-13 min), 5% ACN (13-15 min), 243 nm, 10 mM ammonium formate buffer, 0.4 mL/min.
# [2] = Gemcitabine release from dendrimers in citrate buffer; type: physicochemical; conditions: Citrate Buffer pH 4.5, 37° C.
# Protocol: as §1
substance,measurement,setting,value
"[BHA Lys][Lys]30[Lys]32 [Compound 3, [BHA Lys][Lys]30[Lys]32 [(α-NH-TDA-Gemcitabine)32 (ε-NHPEG˜2100)32]]",% Gemcitabine released in PBS,[1]; 0 h,0%
same,% Gemcitabine released in PBS,[1]; 0.08 h,3.95%
same,% Gemcitabine released in PBS,[1]; 2 h,11.23%
same,% Gemcitabine released in PBS,[1]; 4 h,16.6%
same,% Gemcitabine released in PBS,[1]; 6 h,21.99%
same,% Gemcitabine released in PBS,[1]; 8 h,25.64%
same,% Gemcitabine released in PBS,[1]; 10 h,30.03%
same,% Gemcitabine released in PBS,[1]; 12 h,33.17%
same,% Gemcitabine released in PBS,[1]; 24 h,46.36%
same,% Gemcitabine released in PBS,[1]; 26 h,48.07%
same,% Gemcitabine released in PBS,[1]; 28 h,51.24%
same,% Gemcitabine released in PBS,[1]; 30 h,53.41%
same,% Gemcitabine released in PBS,[1]; 32 h,54.48%
same,% Gemcitabine released in PBS,[1]; 34 h,55.8%
same,% Gemcitabine released in PBS,[1]; 36 h,57.52%
same,% Gemcitabine released in citrate buffer,[2]; 0 h,0%
same,% Gemcitabine released in citrate buffer,[2]; 0.08 h,4.42%
same,% Gemcitabine released in citrate buffer,[2]; 2 h,5.21%
same,% Gemcitabine released in citrate buffer,[2]; 4 h,5.51%
same,% Gemcitabine released in citrate buffer,[2]; 6 h,4.92%
same,% Gemcitabine released in citrate buffer,[2]; 8 h,5.61%
same,% Gemcitabine released in citrate buffer,[2]; 10 h,5.39%
same,% Gemcitabine released in citrate buffer,[2]; 12 h,5.94%
same,% Gemcitabine released in citrate buffer,[2]; 24 h,7.53%
same,% Gemcitabine released in citrate buffer,[2]; 26 h,7.52%
same,% Gemcitabine released in citrate buffer,[2]; 28 h,7.75%
same,% Gemcitabine released in citrate buffer,[2]; 30 h,7.71%
same,% Gemcitabine released in citrate buffer,[2]; 32 h,7.48%
same,% Gemcitabine released in citrate buffer,[2]; 34 h,7.72%
same,% Gemcitabine released in citrate buffer,[2]; 36 h,8.19%
